Experimental data published in US20090271163A1 (published 2009).

T1: heavy chain of B-domain deleted human Factor VIII (A1-A2 domains) (human, UniProt P00451 20-1667, oligosaccharide observed linked to Asn 239)
T1 construct: Residues 17-43, 334-376 and 714-754 were not modeled; also called A1-a1-A2-a2
T1 sequence (heavy): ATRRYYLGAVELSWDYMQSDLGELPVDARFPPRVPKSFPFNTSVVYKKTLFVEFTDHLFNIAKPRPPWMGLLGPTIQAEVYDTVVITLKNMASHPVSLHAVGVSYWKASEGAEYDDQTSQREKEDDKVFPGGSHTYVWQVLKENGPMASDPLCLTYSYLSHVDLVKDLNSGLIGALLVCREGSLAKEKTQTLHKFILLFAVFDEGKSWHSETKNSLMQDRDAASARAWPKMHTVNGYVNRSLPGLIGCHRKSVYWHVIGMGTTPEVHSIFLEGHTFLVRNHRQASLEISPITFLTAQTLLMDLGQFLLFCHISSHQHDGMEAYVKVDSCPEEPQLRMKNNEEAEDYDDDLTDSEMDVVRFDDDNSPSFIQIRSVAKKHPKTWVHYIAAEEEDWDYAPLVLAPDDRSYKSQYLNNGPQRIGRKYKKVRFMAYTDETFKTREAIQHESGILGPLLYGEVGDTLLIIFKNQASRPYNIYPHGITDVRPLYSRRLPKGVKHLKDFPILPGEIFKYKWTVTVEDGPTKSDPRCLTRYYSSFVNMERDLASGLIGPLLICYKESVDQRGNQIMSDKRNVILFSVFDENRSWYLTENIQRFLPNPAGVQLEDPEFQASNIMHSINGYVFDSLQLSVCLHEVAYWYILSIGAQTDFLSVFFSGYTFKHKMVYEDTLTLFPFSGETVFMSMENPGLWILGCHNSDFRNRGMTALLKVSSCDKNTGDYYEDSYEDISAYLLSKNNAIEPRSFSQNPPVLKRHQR


Experiments:
[1] = target: T1, heavy chain of B-domain deleted human …; assay: X-ray crystal structure
Text: X-ray diffraction data of Factor VIII crystals were collected at the NE-CAT synchrotron beamline ID-24 of the Advanced Photon Source (APS) at Argonne National Laboratory. All xray data were processed using program HKL2000 (Otwinowski, Z. & Minor, W. (1997) in Methods Enzymol (Academic Press, New York), Vol. 276, pp. 307-326) (Table 1).
For structural determination using the molecular replacement method, a homology structure model of Factor VIII was constructed from the known primary sequence of Factor VIII (McCoy, A. J. (2007) Acta Crystallogr D Biol Crystallogr 63, 32-41). Using the template structures of Factor Vai (PDBID: […]) (Sandberg, H., Almstedt, A., Brandt, J., Castro, V. M., Gray, E., Holmquist, L., Lewin, M., Oswaldsson, U., Mikaelsson, M., Jankowski, M. A., Bond, M. & Scoble, H. A. (2001) Semin Hematol 38, 4-12) and ceruloplasmin (PDBID: 1KCW) (Adams, T. E., Hockin, M. F., Mann, K. G. & Everse, S. J. (2004) Proc Natl Acad Sci U SA 101, 8918-23), the structure of the A1 and A2 domains of Factor VIII were initially determined with AMoRe (Murshudov, G. N., Vagin, A. A. & Dodson, E. J. (1997) Acta Crystallogr D Biol Crystallogr 53, 240-55) using the structure of the A1 and A2 domains of the homology model. This yielded clear rotation function and translation function solutions. […]

[2] = target: the molecule itself; assay: X-ray crystal structure, crystal contact

Row | binding result [1] | Binder | binding result [2]
1 | binds | light chain of B-domain deleted human Factor VIII (A3-C1-C2 domains) (other, oligosaccharides observed linked to Asn 1810 and Asn 2118, Residues 1649-1690 and 1714-1724 were not modeled; also called a3-A3-C1-C2) light: EITRTTLQSDQEEIDYDDTISVEMKKEDFDIYDEDENQSPRSFQKKTRHYFIAAVERLWDYGMSSSPHVLRNRAQSGSVPQFKKVVFQEFTDGSFTQPLYRGELNEHLGLLGPYIRAEVEDNIMVTFRNQASRPYSFYSSLISYEEDQRQGAEPRKNFVKPNETKTYFWKVQHHMAPTKDEFDCKAWAYFSDVDLEKDVHSGLIGPLLVCHTNTLNPAHGRQVTVQEFALFLTIFDETKSWYFTENMERNCRAPCNIQMEDPTFKENYRFHAINGYIMDTLPGLVMAQDQRIRWYLLSMGSNENIHSIHFSGHVFTVRKKEEYKMALYNLYPGVFETVEMLPSKAGIWRVECLIGEHLHAGMSTLFLVYSNKCQTPLGMASGHIRDFQITASGQYGQWAPKLARLHYSGSINAWSTKEPFSWIKVDLLAPMIIHGIKTQGARQKFSSLYISQFIIMYSLDGKKWQTYRGNSTGTLMVFFGNVDSSGIKHNIFNPPIIARYIRLHPTHYSIRSTLRMELMGCDLNSCSMPLGMESKAISDAQITASSYFTNMFATWSPSKARLHLQGRSNAWRPQVNNPKEWLQVDFQKTMKVTGVTTQGVKSLLTSMYVKEFLISSSQDGHQWTLFFQNGKVKVFQGNQDSFTPVVNSLDPPLLTRYLRIHPQSWVHQIALRMEVLGCEAQDLY | –
2 | – | B-domain deleted human Factor VIII (other, oligosaccharides observed linked to Asn 1810 and Asn 2118; oligosaccharide observed linked to Asn 239, Expressed in CHO cells and crystallised; heterodimer of heavy and light chain with 2 Cu2+, 1 Ca2+ and three carbohydrate moieties; also called B-domain deleted recombinant Factor VIII (Wyeth); B domain-deleted FVIII) heavy: ATRRYYLGAVELSWDYMQSDLGELPVDARFPPRVPKSFPFNTSVVYKKTLFVEFTDHLFNIAKPRPPWMGLLGPTIQAEVYDTVVITLKNMASHPVSLHAVGVSYWKASEGAEYDDQTSQREKEDDKVFPGGSHTYVWQVLKENGPMASDPLCLTYSYLSHVDLVKDLNSGLIGALLVCREGSLAKEKTQTLHKFILLFAVFDEGKSWHSETKNSLMQDRDAASARAWPKMHTVNGYVNRSLPGLIGCHRKSVYWHVIGMGTTPEVHSIFLEGHTFLVRNHRQASLEISPITFLTAQTLLMDLGQFLLFCHISSHQHDGMEAYVKVDSCPEEPQLRMKNNEEAEDYDDDLTDSEMDVVRFDDDNSPSFIQIRSVAKKHPKTWVHYIAAEEEDWDYAPLVLAPDDRSYKSQYLNNGPQRIGRKYKKVRFMAYTDETFKTREAIQHESGILGPLLYGEVGDTLLIIFKNQASRPYNIYPHGITDVRPLYSRRLPKGVKHLKDFPILPGEIFKYKWTVTVEDGPTKSDPRCLTRYYSSFVNMERDLASGLIGPLLICYKESVDQRGNQIMSDKRNVILFSVFDENRSWYLTENIQRFLPNPAGVQLEDPEFQASNIMHSINGYVFDSLQLSVCLHEVAYWYILSIGAQTDFLSVFFSGYTFKHKMVYEDTLTLFPFSGETVFMSMENPGLWILGCHNSDFRNRGMTALLKVSSCDKNTGDYYEDSYEDISAYLLSKNNAIEPRSFSQNPPVLKRHQR light: EITRTTLQSDQEEIDYDDTISVEMKKEDFDIYDEDENQSPRSFQKKTRHYFIAAVERLWDYGMSSSPHVLRNRAQSGSVPQFKKVVFQEFTDGSFTQPLYRGELNEHLGLLGPYIRAEVEDNIMVTFRNQASRPYSFYSSLISYEEDQRQGAEPRKNFVKPNETKTYFWKVQHHMAPTKDEFDCKAWAYFSDVDLEKDVHSGLIGPLLVCHTNTLNPAHGRQVTVQEFALFLTIFDETKSWYFTENMERNCRAPCNIQMEDPTFKENYRFHAINGYIMDTLPGLVMAQDQRIRWYLLSMGSNENIHSIHFSGHVFTVRKKEEYKMALYNLYPGVFETVEMLPSKAGIWRVECLIGEHLHAGMSTLFLVYSNKCQTPLGMASGHIRDFQITASGQYGQWAPKLARLHYSGSINAWSTKEPFSWIKVDLLAPMIIHGIKTQGARQKFSSLYISQFIIMYSLDGKKWQTYRGNSTGTLMVFFGNVDSSGIKHNIFNPPIIARYIRLHPTHYSIRSTLRMELMGCDLNSCSMPLGMESKAISDAQITASSYFTNMFATWSPSKARLHLQGRSNAWRPQVNNPKEWLQVDFQKTMKVTGVTTQGVKSLLTSMYVKEFLISSSQDGHQWTLFFQNGKVKVFQGNQDSFTPVVNSLDPPLLTRYLRIHPQSWVHQIALRMEVLGCEAQDLY | binds
